Laboratory results from patent US7517850B2, “Calcium phosphate nanoclusters and their applications” (priority 1999, dated 2009).
Like-named read-outs stand apart in the source and are kept apart here. Ends that are not written are not given here.

B1: β-casein 5p: β-casein phosphoprotein with 5 phosphorylated residues, item 3 (protein, UniProt P02666 16-224, looked up)
Beta-casein: RELEELNVPGEIVESLSSSEESITRINKKIEKFQSEEQQQTEDELQDKIHPFAQTQSLVYPFPGPIPNSLPQNIPPLTQTPVVVPPFLQPEVMGVSKVKEAMAPKHKEMPFPKYPVEPFTESQSLTLTDVENLHLPLPLLQSWMHQPHQPLPPTVMFPPQSVLSLSQSKVLPVPQKAVPYPQRDMPIQAFLLYQEPVLGPVRGPFPIIV
modifications: 5 phosphorylations
notes: β-casein phosphoprotein with 5 phosphorylated residues, item 3

What was measured:
[1] = Confirmation of nanocluster formation by small angle X-ray or neutron scattering; format: physicochemical
From the text: The formation of nanoclusters, nanocluster-like particles or larger particles composed of assemblies of nanoclusters has been established by small angle X-ray or neutron scattering experiments, as described by Holt et al. (1996, 1998).

[2] = Test for nanocluster formation (absence of precipitation); format: physicochemical; settings: standard conditions for β-casein phosphopeptide nanoclusters modified to the smallest extent; absence of precipitation = nanocluster-like particles
From the text: Nanocluster formation was investigated with the following phosphoproteins, phosphoprotein mixtures, phosphopeptides and phosphopeptide mixtures: • 1. Whole casein • 2. Mixtures of β- and κ-caseins • 3. β-casein 5P • 4. A commercial phosphopeptide mixture supplied by MD foods and derived from casein, containing a large number of phosphopeptides as described by Ellegard et al. (1999). • 5. A phosphopeptide mixture derived from a digestion of whole casein with protease XIV from Streptomyces griseus, and papain type IV containing αs1-casein 2P (f46-51), αs1-casein 4P (f61-70), β-casein 4P (f11-21), αs2-casein 3P (f5-12), αs2-casein 4P (f49-61) and αs2-casein 2P (f126-133). • 6. β-casein phosphopeptides 4P (f1-25) or 4P (f2-25) or 5P (f1-42) • 7. Cyanogen bromide cleavage fragments αs1-casein 2P (f1-54) or αs1-casein 6P (f61-123). • […]. Tryptic phosphopeptides αs1-casein 1P (f104-119) or αs1-casein 2P (f43-58) or αs1-casein 5P (f59-79) or αs1-casein 7P (f43-79)
A test for nanocluster formation was applied in which the standard conditions for the formation of nanoclusters from the β-casein phosphopeptide were modified to the smallest extent possible and applied to the other peptides or peptide mixtures. […] Nanoclusters were found with each of the 6 phosphopeptides and confirmed experimentally by X-ray scattering measurements.

[3] = small angle X-ray or neutron scattering; Holt et al., 1996, 1998; cited from earlier work

Molecule	Conclusion (nanocluster formation) [1]	outcome of test for nanocluster formation [2]	Conclusion (nanocluster formation) [3]
αs1-casein 1P (f104-119): tryptic phosphopeptide of αs1-casein, item 8 (YKVPQLEIVPNSAEER; also: 1 phosphorylation, site not given here; UniProt P02662 119-134, looked up, fragment)	Precipitation of calcium phosphate	No stable nanocluster solution was formed	
αs1-casein 2P (f1-54): cyanogen bromide cleavage fragment of αs1-casein, item 7 (RPKHPIKHQGLPQEVLNENLLRFFVAPFPEVFGKEKVNELSKDIGSESTEDQAM; also: 2 phosphorylations, sites not given here; UniProt P02662 16-69, looked up, fragment)		failed to dissolve	
αs1-casein 2P (f43-58): tryptic phosphopeptide of αs1-casein, item 8 (DIGSESTEDQAMEDIK; also: 2 phosphorylations, sites not given here; UniProt P02662 58-73, looked up, fragment)	Precipitation of calcium phosphate	No stable nanocluster solution was formed	
αs1-casein 5P (f59-79): tryptic phosphopeptide of αs1-casein, item 8 (QMEAESISSSEEIVPNSVEQK; also: 5 phosphorylations, sites not given here; UniProt P02662 74-94, looked up, fragment)	Clear solution of stable nanoclusters in the normal	Nanoclusters were formed	
αs1-casein 7P (f43-79): tryptic phosphopeptide of αs1-casein, item 8 (DIGSESTEDQAMEDIKQMEAESISSSEEIVPNSVEQK; also: 7 phosphorylations, sites not given here; UniProt P02662 58-94, looked up, fragment)	Clear solution of stable nanoclusters in the normal	Nanoclusters were formed	
β-casein phosphopeptide 4P (f1-25): β-casein phosphopeptide residues 1-25 with 4 phosphorylated residues, item 6 (RELEELNVPGEIVESLSSSEESITR; also: 4 phosphorylations, sites not given here; UniProt P02666 16-40, looked up, fragment)			Monodisperse nanoclusters formed (Holt et al., 1996,
β-casein phosphopeptide 4P (f2-25): β-casein phosphopeptide residues 2-25 with 4 phosphorylated residues, item 6 (ELEELNVPGEIVESLSSSEESITR; also: 4 phosphorylations, sites not given here; UniProt P02666 17-40, looked up, fragment)	Monodisperse nanoclusters formed		
β-casein phosphopeptide 5P (f1-42): β-casein phosphopeptide residues 1-42 with 5 phosphorylated residues, item 6 (RELEELNVPGEIVESLSSSEESITRINKKIEKFQSEEQQQTE; also: 5 phosphorylations, sites not given here; UniProt P02666 16-57, looked up, fragment)			Monodisperse nanoclusters formed (Holt et al., 1996,
B1	Uncontrolled precipitation of the β-casein aggregates	underwent an unlimited aggregation	
